Laboratory results: IntAct's records for PubMed 16354671

B1: Outer-membrane lipoprotein carrier protein (Escherichia coli (strain K12)), P61316 (parent)
chain: MKKIAITCALLSSLVASSVWADAASDLKSRLDKVSSFHASFTQKVTDGSGAAVQEGQGDLWVKRPNLFNWHMTQPDESILVSDGKTLWFYNPFVEQATATWLKDATGNTPFMLIARNQSSDWQQYNIKQNGDDFVLTPKASNGNLKQFTINVGRDGTIHQFSAVEQDDQRSSYQLKSQQNGAVDAAKFTFTPPQGVTVDDQRK
partner: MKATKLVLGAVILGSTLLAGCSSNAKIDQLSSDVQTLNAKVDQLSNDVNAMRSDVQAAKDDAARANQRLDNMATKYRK

Variants of: B1
Conditions: with lpp_ecoli lpp

Row | Variant | effect of a mutation on the interaction
1 | I114G | increasing interaction
